{
  "source": "paper PMC5339767",
  "about": "“A Novel Kleefstra Syndrome-associated Variant That Affects the Conserved TPLX Motif within the Ankyrin Repeat of EHMT1 Leads to Abnormal Protein Folding” (The Journal of Biological Chemistry, 2017)",
  "key": {"[1]": {"biological_target": "T1, EHMT1 WT (Homo sapiens, UniProt Q9H9B1)", "T1 construct": "WT and p.P809L EHMT1 variant ankyrin domains expressed from Escherichia coli; His6 (N); made in house; host or cells: E. coli BL21 (DE3), pET vector", "T1 sequence (Q9H9B1 765-1001 limits assumed)": "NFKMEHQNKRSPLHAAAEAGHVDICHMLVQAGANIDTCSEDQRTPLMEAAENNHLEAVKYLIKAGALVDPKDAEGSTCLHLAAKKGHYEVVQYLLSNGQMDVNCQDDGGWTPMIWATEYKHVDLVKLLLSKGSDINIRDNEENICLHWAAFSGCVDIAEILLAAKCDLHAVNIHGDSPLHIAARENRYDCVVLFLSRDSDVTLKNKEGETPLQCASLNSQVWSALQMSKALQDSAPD", "assay": "Trp fluorescence quenching titration of dimethylated histone H3 Lys9 peptide, WT EHMT1", "assay_type": "binding", "conditions": "WT EHMT1 1 μM; stepwise addition of peptide (36.3 μM); 2 min equilibration; 20 °C; λEx 295 nm, λEm 350 nm; midpoint of logistic function with Hill slope; read-out: apparent affinity", "experimental": "(§1) Circular dichroism spectra (Fig. 7, left panel) were recorded to study the effect of the p.P809L mutation on the secondary structure of EHMT1 and confirm the in silico predictions that the p.P809L variant causes abnormal protein folding. The far UV CD spectrum of EHMT1 is dominated by the α-helical content of the protein showing two characteristic minima at 222 and 208 nm. […] Lastly, because the ankyrin repeat domain of the EHMT1 is critical for binding to methylated histones to regulate gene expression, we also studied the interaction of EHMT1 and the p.P809L mutation with its dimethylated target, the histone H3K9 peptide, by monitoring the Trp fluorescence emission at 350 nm after excitation at 295 nm (Fig. 9, left panel).\nFIGURE 9. Interaction of EHMT1 with the dimethylated histone H3 Lys^9 peptide. […] The change in fluorescence intensity was followed at λEm = 350 nm after excitation at λEx = 295 nm. […]\nFor experimental purposes, we produced and purified an N-terminal His6-tagged recombinant form of WT and the p.P809L EHMT1 proteins using the pET vector system (Novagen). […] Spectra in the far UV range (200–260 nm) for WT and p.P809L EHMT1 were recorded on an Aviv Biomedical Model 420SF circular dichroism spectrometer. […] Fluorescence measurements were performed at 20 °C on a Horiba Jobin-Yvon Fluorolog 3 spectrofluorometer equipped with a Wavelength Electronics LF1-3751 temperature controller. […]"}, "[2]": {"conditions": "p.P81L mutation in TPLX motif of p16; cited from earlier work", "description": "(§2) Nevertheless, our study is the first to describe how mutations in any of the TPLX motifs of the EHMT1 ankyrin domain affect protein folding to induce a moderate change in its affinity for the H3K9me2 peptide. Thus, it becomes important to compare this information to other, better characterized mutations in ankyrin repeats that are known to be pathogenic in humans. […] Thus, this type of mutation ( ..."}, "[3]": {"test_system": "CDK4", "conditions": "non-quantitative two-hybrid GAL4-based reporter assay; cited from earlier work", "description": "as §2"}, "[4]": {"assay": "intrinsic protein fluorescence emission spectra", "assay_type": "physicochemical", "conditions": "protein 1 μM, 20 °C; for λmax of fluorescence emission: excitation 280 and 295 nm, emission 310-440 nm", "experimental": "as §1\nFIGURE 8. Fluorescence emission spectra of WT EHMT1 and of p.P809L. Fluorescence emission spectra of WT EHMT1 (solid symbols and bars) and of p.P809L (open symbols and bars) were obtained. Spectra were recorded at 20 °C using a protein concentration of 1 μM. The excitation wavelengths (λEx) were 280 nm (circles; excitation of Trp and Tyr residues) and 295 nm (squares; selective excitation of Trp residues). […]\nFor experimental purposes, we produced and purified an N-terminal His6-tagged recombinant form of WT and the p.P809L EHMT1 proteins using the pET vector system (Novagen). […] Spectra in the far UV range (200–260 nm) for WT and p.P809L EHMT1 were recorded on an Aviv Biomedical Model 420SF circular dichroism spectrometer. […] Fluorescence measurements were performed at 20 °C on a Horiba Jobin-Yvon Fluorolog 3 spectrofluorometer equipped with a Wavelength Electronics LF1-3751 temperature controller. Fluorescence emission spectra of both proteins were recorded between 310 and 440 nm after excitation at 280 or 295 nm using a protein concentration of 1 μM in a 1-cm quartz cell. […] After equilibration for 2 min, the fluorescence signal was recorded and averaged for 20 s using an excitation wavelength of 295 nm for the selective excitation of Trp residues and an emission wavelength of 350 nm. […]"}, "[5]": {"assay": "far UV circular dichroism spectroscopy", "assay_type": "physicochemical", "conditions": "far UV CD 200–260 nm, 20 °C; Bestsel deconvolution; compared with WT", "experimental": "as §1\nFIGURE 7. Impact of the p. P809L mutation on secondary structure. Left panel, far UV CD spectra of WT EHMT1 (●) and of p.P809L (○) were recorded at 20 °C, corrected by the signal of the buffer, and converted to mean ellipticity per amino acid residue (ϴ^MRW). […]\nFor experimental purposes, we produced and purified an N-terminal His6-tagged recombinant form of WT and the p.P809L EHMT1 proteins using the pET vector system (Novagen). […] Spectra in the far UV range (200–260 nm) for WT and p.P809L EHMT1 were recorded on an Aviv Biomedical Model 420SF circular dichroism spectrometer. […]"}},
  "note": "“Also recorded” adds a separate entry of the source.",
  "data": [
    {"molecule": "H3K9me2 peptide: dimethylated histone H3 Lys^9 peptide", "values": [
      {"measurement": "Kd", "setting": "[1]", "value": 760, "unit": "nM"}
    ]},
    {"molecule": "p.P81L p16: p.P81L mutation in the TPLX motif within the ankyrin repeat of the tumor suppressor p16 (protein, UniProt P42771 1-156, looked up, variant P81L) Cyclin-dependent kinase …: MEPAAGSSMEPSADWLATAAARGRVEEVRALLEAGALPNAPNSYGRRPIQVMMMGSARVAELLLLHGAEPNCADPATLTRLVHDAAREGFLDTLVVLHRAGARLDVRDAWGRLPVDLAEELGHRDVARYLRAAAGGTRGSNHARIDAAEGPSDIPD", "values": [
      {"measurement": "secondary structure", "setting": "[2]", "value": "secondary structure alterations"},
      {"measurement": "interaction with CDK4", "setting": "[3]", "value": "impaired interaction with CDK4"}
    ]},
    {"molecule": "WT EHMT1: N-terminal His6-tagged recombinant form of WT EHMT1 (protein, UniProt Q9H9B1 2-1298, looked up, N-terminal His6 tag) Histone-lysine …: AAADAEAVPARGEPQQDCCVKTELLGEETPMAADEGSAEKQAGEAHMAADGETNGSCENSDASSHANAAKHTQDSARVNPQDGTNTLTRIAENGVSERDSEAAKQNHVTADDFVQTSVIGSNGYILNKPALQAQPLRTTSTLASSLPGHAAKTLPGGAGKGRTPSAFPQTPAAPPATLGEGSADTEDRKLPAPGADVKVHRARKTMPKSVVGLHAASKDPREVREARDHKEPKEEINKNISDFGRQQLLPPFPSLHQSLPQNQCYMATTKSQTACLPFVLAAAVSRKKKRRMGTYSLVPKKKTKVLKQRTVIEMFKSITHSTVGSKGEKDLGASSLHVNGESLEMDSDEDDSEELEEDDGHGAEQAAAFPTEDSRTSKESMSEADRAQKMDGESEEEQESVDTGEEEEGGDESDLSSESSIKKKFLKRKGKTDSPWIKPARKRRRRSRKKPSGALGSESYKSSAGSAEQTAPGDSTGYMEVSLDSLDLRVKGILSSQAEGLANGPDVLETDGLQEVPLCSCRMETPKSREITTLANNQCMATESVDHELGRCTNSVVKYELMRPSNKAPLLVLCEDHRGRMVKHQCCPGCGYFCTAGNFMECQPESSISHRFHKDCASRVNNASYCPHCGEESSKAKEVTIAKADTTSTVTPVPGQEKGSALEGRADTTTGSAAGPPLSEDDKLQGAASHVPEGFDPTGPAGLGRPTPGLSQGPGKETLESALIALDSEKPKKLRFHPKQLYFSARQGELQKVLLMLVDGIDPNFKMEHQNKRSPLHAAAEAGHVDICHMLVQAGANIDTCSEDQRTPLMEAAENNHLEAVKYLIKAGALVDPKDAEGSTCLHLAAKKGHYEVVQYLLSNGQMDVNCQDDGGWTPMIWATEYKHVDLVKLLLSKGSDINIRDNEENICLHWAAFSGCVDIAEILLAAKCDLHAVNIHGDSPLHIAARENRYDCVVLFLSRDSDVTLKNKEGETPLQCASLNSQVWSALQMSKALQDSAPDRPSPVERIVSRDIARGYERIPIPCVNAVDSEPCPSNYKYVSQNCVTSPMNIDRNITHLQYCVCIDDCSSSNCMCGQLSMRCWYDKDGRLLPEFNMAEPPLIFECNHACSCWRNCRNRVVQNGLRARLQLYRTRDMGWGVRSLQDIPPGTFVCEYVGELISDSEADVREEDSYLFDLDNKDGEVYCIDARFYGNVSRFINHHCEPNLVPVRVFMAHQDLRFPRIAFFSTRLIEAGEQLGFDYGERFWDIKGKLFSCRCGSPKCRHSSAALAQRQASAAQEAQEDGLPDTSSAAAADPL", "values": [
      {"measurement": "λmax of fluorescence emission", "setting": "[4]", "value": "~350", "unit": "nm"}
    ]},
    {"molecule": "p.P809L: N-terminal His6-tagged recombinant p.P809L EHMT1 variant (c.2426C>T) (protein, UniProt Q9H9B1 2-1298, looked up, variant P809L, N-terminal His6 tag) Histone-lysine …: AAADAEAVPARGEPQQDCCVKTELLGEETPMAADEGSAEKQAGEAHMAADGETNGSCENSDASSHANAAKHTQDSARVNPQDGTNTLTRIAENGVSERDSEAAKQNHVTADDFVQTSVIGSNGYILNKPALQAQPLRTTSTLASSLPGHAAKTLPGGAGKGRTPSAFPQTPAAPPATLGEGSADTEDRKLPAPGADVKVHRARKTMPKSVVGLHAASKDPREVREARDHKEPKEEINKNISDFGRQQLLPPFPSLHQSLPQNQCYMATTKSQTACLPFVLAAAVSRKKKRRMGTYSLVPKKKTKVLKQRTVIEMFKSITHSTVGSKGEKDLGASSLHVNGESLEMDSDEDDSEELEEDDGHGAEQAAAFPTEDSRTSKESMSEADRAQKMDGESEEEQESVDTGEEEEGGDESDLSSESSIKKKFLKRKGKTDSPWIKPARKRRRRSRKKPSGALGSESYKSSAGSAEQTAPGDSTGYMEVSLDSLDLRVKGILSSQAEGLANGPDVLETDGLQEVPLCSCRMETPKSREITTLANNQCMATESVDHELGRCTNSVVKYELMRPSNKAPLLVLCEDHRGRMVKHQCCPGCGYFCTAGNFMECQPESSISHRFHKDCASRVNNASYCPHCGEESSKAKEVTIAKADTTSTVTPVPGQEKGSALEGRADTTTGSAAGPPLSEDDKLQGAASHVPEGFDPTGPAGLGRPTPGLSQGPGKETLESALIALDSEKPKKLRFHPKQLYFSARQGELQKVLLMLVDGIDPNFKMEHQNKRSPLHAAAEAGHVDICHMLVQAGANIDTCSEDQRTLLMEAAENNHLEAVKYLIKAGALVDPKDAEGSTCLHLAAKKGHYEVVQYLLSNGQMDVNCQDDGGWTPMIWATEYKHVDLVKLLLSKGSDINIRDNEENICLHWAAFSGCVDIAEILLAAKCDLHAVNIHGDSPLHIAARENRYDCVVLFLSRDSDVTLKNKEGETPLQCASLNSQVWSALQMSKALQDSAPDRPSPVERIVSRDIARGYERIPIPCVNAVDSEPCPSNYKYVSQNCVTSPMNIDRNITHLQYCVCIDDCSSSNCMCGQLSMRCWYDKDGRLLPEFNMAEPPLIFECNHACSCWRNCRNRVVQNGLRARLQLYRTRDMGWGVRSLQDIPPGTFVCEYVGELISDSEADVREEDSYLFDLDNKDGEVYCIDARFYGNVSRFINHHCEPNLVPVRVFMAHQDLRFPRIAFFSTRLIEAGEQLGFDYGERFWDIKGKLFSCRCGSPKCRHSSAALAQRQASAAQEAQEDGLPDTSSAAAADPL", "values": [
      {"measurement": "fluorescence emission (intensity)", "setting": "[4]; compared with wild type protein", "value": "decrease of the fluorescence emission"},
      {"measurement": "λmax of fluorescence emission", "setting": "[4]", "value": 347, "unit": "nm"},
      {"measurement": "α-helical content", "setting": "[5]", "value": "reduced α-helical content; also recorded: decrease in the α-helical content"}
    ]}
  ]
}
